The target in data set [1] is T1, Ets-1 p42 (human, UniProt P14921-2 1-354).
T1 sequence: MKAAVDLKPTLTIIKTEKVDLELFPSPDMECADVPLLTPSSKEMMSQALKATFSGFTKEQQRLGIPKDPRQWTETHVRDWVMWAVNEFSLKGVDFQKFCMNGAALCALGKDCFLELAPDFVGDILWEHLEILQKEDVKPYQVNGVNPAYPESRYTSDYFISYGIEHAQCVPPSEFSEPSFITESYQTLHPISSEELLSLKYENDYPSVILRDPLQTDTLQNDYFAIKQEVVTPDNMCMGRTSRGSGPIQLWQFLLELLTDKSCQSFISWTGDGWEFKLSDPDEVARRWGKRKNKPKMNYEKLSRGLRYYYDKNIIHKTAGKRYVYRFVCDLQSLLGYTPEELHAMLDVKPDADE
Briefly: not stated.

Data set [2] concerns the target T1, Ets-1 p42. The data set can be described thus: EMSA. Background: Mobility shift assays separate free from complexed probe on a gel.
In the next data set the target is T2, p51ΔC415 (human, UniProt P14921 1-415).
T2 sequence: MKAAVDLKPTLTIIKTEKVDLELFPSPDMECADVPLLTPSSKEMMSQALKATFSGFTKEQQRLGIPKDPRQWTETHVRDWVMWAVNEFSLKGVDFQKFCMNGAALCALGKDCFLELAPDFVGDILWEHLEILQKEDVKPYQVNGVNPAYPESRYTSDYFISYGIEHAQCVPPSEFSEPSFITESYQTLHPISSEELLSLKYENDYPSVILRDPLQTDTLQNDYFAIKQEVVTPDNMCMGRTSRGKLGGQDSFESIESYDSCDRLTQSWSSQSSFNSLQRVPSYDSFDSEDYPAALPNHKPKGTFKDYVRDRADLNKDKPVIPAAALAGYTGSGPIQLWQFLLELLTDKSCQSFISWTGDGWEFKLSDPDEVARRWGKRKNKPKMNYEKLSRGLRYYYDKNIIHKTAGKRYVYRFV
Briefly: EMSA.

The target of the next data set is T3, p42ΔC328 (human, UniProt P14921-2 1-328).
T3 sequence: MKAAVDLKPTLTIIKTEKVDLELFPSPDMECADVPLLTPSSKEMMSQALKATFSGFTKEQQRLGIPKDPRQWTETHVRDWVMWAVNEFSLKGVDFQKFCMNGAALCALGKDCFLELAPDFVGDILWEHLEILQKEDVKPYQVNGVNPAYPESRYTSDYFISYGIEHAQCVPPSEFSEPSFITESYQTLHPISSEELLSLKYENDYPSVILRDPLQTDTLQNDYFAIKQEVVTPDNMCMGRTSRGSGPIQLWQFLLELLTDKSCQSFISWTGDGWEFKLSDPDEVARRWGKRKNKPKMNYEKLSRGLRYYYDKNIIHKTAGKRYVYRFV
The data set can be described thus: EMSA.

A further data set addresses T4, p51(301-415) (human, UniProt P14921 301-415).
T4 sequence: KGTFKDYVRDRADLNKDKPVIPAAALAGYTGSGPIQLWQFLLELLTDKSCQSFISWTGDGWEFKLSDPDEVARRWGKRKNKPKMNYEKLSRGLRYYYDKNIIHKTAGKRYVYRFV
The data set can be described thus: EMSA.

The next data set has as its target T5, p51ΔN331 (human, UniProt P14921 331-441).
T5 sequence: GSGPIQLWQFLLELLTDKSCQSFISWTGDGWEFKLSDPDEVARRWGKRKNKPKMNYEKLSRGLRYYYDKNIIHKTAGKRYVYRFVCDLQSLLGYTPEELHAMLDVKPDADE
The data set can be described thus: EMSA.

In a further data set the target is T6, Ets-1 DBD (human, UniProt P14921 331-415).
T6 sequence: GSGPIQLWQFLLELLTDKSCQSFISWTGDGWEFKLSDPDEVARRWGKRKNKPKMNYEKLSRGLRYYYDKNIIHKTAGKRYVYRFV
Briefly: EMSA.

B1: WT (dsDNA)
DNA 1: ACCAAGACAGGAAGCACTTCCTGGAGATTA
DNA 2: TAATCTCCAGGAAGTGCTTCCTGTCTTGGT
What is called Kd is the equilibrium constant for the complex coming apart. A higher Kd goes with a looser complex. As to B1, the equilibrium dissociation constant (Kd) with Ets-1 p42 [1] is ~20 nM.

B2: IP (dsDNA)
DNA 1: ACCAAGAGCTTCCTGCAGGAAGTGAGATTA
DNA 2: TAATCTCACTTCCTGCAGGAAGCTCTTGGT
For B2, the binding result in the data set with Ets-1 p42 [2] is “binds”.

B3: WT+4 (dsDNA)
DNA 1: ACCAAGACAGGAAGCACGCACTTCCTGGAGATTA
DNA 2: TAATCTCCAGGAAGTGCGTGCTTCCTGTCTTGGT
As to B3, the binding result with p51ΔC415, in the data set with p42ΔC328, with p51(301-415), with p51ΔN331, with Ets-1 DBD and in the data set with Ets-1 p42 [2] was “binds” throughout.

B4: M1 (dsDNA)
DNA 1: ACCAAGACAAAAAGCACTTCCTGGAGATTA
DNA 2: TAATCTCCAGGAAGTGCTTTTTGTCTTGGT
Turning to B4, the dissociation constant Kd with Ets-1 p42 [1] was ~20 nM.

B5: M2 (dsDNA)
DNA 1: ACCAAGACAGGAAGCACTTTTTGGAGATTA
DNA 2: TAATCTCCAAAAAGTGCTTCCTGTCTTGGT
Turning to B5, the Kd with Ets-1 p42 [1] was ~20 nM.

For the origin of these results see article PMC2715226.
